From patent publication US20020102256A1 (ZymoGenetics, published 2002) come the findings set out here.

Assay in all cases: cell-based or functional assay
The target of assay [1] is T1, Activated human C1s (Calbiochem-Novabiochem Corporation) (human, UniProt P09871 16-688).
T1 sequence (looked up): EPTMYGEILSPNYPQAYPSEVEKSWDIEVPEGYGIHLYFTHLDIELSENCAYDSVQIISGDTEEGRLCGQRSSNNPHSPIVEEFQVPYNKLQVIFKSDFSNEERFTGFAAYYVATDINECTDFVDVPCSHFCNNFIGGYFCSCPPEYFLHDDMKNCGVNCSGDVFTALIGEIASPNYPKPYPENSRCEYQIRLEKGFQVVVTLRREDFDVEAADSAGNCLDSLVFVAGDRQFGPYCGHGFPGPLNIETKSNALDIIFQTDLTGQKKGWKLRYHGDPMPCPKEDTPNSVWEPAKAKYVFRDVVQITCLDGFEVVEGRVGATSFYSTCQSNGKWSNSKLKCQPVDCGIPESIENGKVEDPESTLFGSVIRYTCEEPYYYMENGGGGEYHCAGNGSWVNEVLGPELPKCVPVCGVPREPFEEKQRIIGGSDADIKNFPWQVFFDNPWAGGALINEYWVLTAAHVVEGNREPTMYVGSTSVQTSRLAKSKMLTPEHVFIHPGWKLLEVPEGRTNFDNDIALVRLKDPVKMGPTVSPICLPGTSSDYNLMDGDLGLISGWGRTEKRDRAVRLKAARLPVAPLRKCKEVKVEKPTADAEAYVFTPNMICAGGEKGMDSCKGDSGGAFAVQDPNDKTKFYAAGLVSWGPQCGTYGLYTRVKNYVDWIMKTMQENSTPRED

Assay [2] has as its target T1, Activated human C1s …. This is another data set of the same source.
Assay [3] deals with T2, Activated human C1s (Calbiochem-Novabiochem Corporation) (human) (UniProt P09871).
T2 sequence (looked up): T1 sequence (looked up)

“And” between values parts separate entries of the source, which are not always exact repeats. Equal values may be shown once.

B1: Deglycosylated and cleaved recombinant BD001 (other)
chain 1: AKKKLPKCQKQEDCGSWDLKCNNVTKKCECRNQVCGRGCPKERYQRDKYGCRKCLCKGCDGFKCR
chain 2: LGCTYGFKTDKKGCEAFCTCNTKETACVNIWCTDPYKCNPESGRCEDPNEEYEYDYE
modifications: sulfation of at least one of Tyr117, Tyr119 and Tyr121; glycan at Asn23 removed with PNGase F
On to B1, for which the “IC50 (nM), C1s enzyme assay” value in assay [1] amounted to 21.9 nM.

B2: Cleaved recombinant BD001 (other)
chain 1: B1 chain 1
chain 2: B1 chain 2
modifications: sulfation of at least one of Tyr117, Tyr119 and Tyr121; glycosylation at Asn23 (fucosylated complex-type core)
As for B2, in assay [2], the “fold higher IC50 than the matched, intact form, C1s enzyme assay” value was about 10 fold. Further, the “IC50 (nM), C1s enzyme assay” value in assay [1] was determined as 19.8 nM.

B3: Desulfated and cleaved recombinant BD001 (other)
chain 1: B1 chain 1
chain 2: B1 chain 2
modifications: sulfate groups removed from Tyr117/Tyr119/Tyr121 with aryl sulfatase; glycosylation at Asn23 (fucosylated complex-type core)
As to B3, the “IC50 (nM), C1s enzyme assay” value in assay [1] amounted to 558 nM.

B4: Recombinant BD001 expressed in Baculovirus (protein)
chain: AKKKLPKCQKQEDCGSWDLKCNNVTKKCECRNQVCGRGCPKERYQRDKYGCRKCLCKGCDGFKCRLGCTYGFKTDKKGCEAFCTCNTKETACVNIWCTDPYKCNPESGRCEDPNEEYEYDYE
modifications: glycosylation at Asn23 (fucosylated complex-type core); sulfation of at least one of Tyr117, Tyr119 and Tyr121 (tyrosine sulfation at the C-terminus on three tyrosine residues)
In the case of B4, in assay [3], the IC50 (nM), C1s enzyme assay was 2.5 nM and the IC50, C1s enzyme assay (decrease in Vmax of Pefa-C1E cleavage) was determined as 5.2 nM.

B5: Desulfated recombinant BD001 (protein)
chain: B4 chain
modifications: sulfate groups removed from Tyr117/Tyr119/Tyr121 with aryl sulfatase; glycosylation at Asn23
In the case of B5, the IC50 (nM), C1s enzyme assay in assay [3] turned out to be 36 nM.

B6: BD001 isolated from tissue (protein)
chain: B4 chain
modifications: glycosylation at Asn23 (fucosylated complex-type core); sulfation of at least one of Tyr117, Tyr119 and Tyr121
For the molecule B6, the IC50 (nM), C1s enzyme assay in assay [3] is 4 nM and 4.7 nM.

B7: Deglycosylated recombinant BD001 (protein)
chain: B4 chain
modifications: glycan at Asn23 removed with PNGase F; sulfation of at least one of Tyr117, Tyr119 and Tyr121
The molecule B7 registered an IC50 (nM), C1s enzyme assay in assay [3] of 2.86 nM.

B8: BD001 protein isolated from Pichia methanolica (protein)
chain: B4 chain
modifications: lacks tyrosine sulfation at the C-terminus and N-glycosylation
Take B8: in assay [3], the IC50, C1s enzyme assay (decrease in Vmax of Pefa-C1E cleavage) amounted to 44 nM; the fold decrease in activity in bioassays compared with the baculovirus-expressed material worked out at 10 fold; the fold less active than the baculovirus material, C1s enzyme assay was determined as 8 fold.
